{"source": "patent US20040161821A1", "about": "(COLD SPRING HARBOR LABORATORY, published 2004)", "key": {"[1]": {"molecular_target": "T1, chimeric receptor CSF-MET, P07333", "T1 chain": "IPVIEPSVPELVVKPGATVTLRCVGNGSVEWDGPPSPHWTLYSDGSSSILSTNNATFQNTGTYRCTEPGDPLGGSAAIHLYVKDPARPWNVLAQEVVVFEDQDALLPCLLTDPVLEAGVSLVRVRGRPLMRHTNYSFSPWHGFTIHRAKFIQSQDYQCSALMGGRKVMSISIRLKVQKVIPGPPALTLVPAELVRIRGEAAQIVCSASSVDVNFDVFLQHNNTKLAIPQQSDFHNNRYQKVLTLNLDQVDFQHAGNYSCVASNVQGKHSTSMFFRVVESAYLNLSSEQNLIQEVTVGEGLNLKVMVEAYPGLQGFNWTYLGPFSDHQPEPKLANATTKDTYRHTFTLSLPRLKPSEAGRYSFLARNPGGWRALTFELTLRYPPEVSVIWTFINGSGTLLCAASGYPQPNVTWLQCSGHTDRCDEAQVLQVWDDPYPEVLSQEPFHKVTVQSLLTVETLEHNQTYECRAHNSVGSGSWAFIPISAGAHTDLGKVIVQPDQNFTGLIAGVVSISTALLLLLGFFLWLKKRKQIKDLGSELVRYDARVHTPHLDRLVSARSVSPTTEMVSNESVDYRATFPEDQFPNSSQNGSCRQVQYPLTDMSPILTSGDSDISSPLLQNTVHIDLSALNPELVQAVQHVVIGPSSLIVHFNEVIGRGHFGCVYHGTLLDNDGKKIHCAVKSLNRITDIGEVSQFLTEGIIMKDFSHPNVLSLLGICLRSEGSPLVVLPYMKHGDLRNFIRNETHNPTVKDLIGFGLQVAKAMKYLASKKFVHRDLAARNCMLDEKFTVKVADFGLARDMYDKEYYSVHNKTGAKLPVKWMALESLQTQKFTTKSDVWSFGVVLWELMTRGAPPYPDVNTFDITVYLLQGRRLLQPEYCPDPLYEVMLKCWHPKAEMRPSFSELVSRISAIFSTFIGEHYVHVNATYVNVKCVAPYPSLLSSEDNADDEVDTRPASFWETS"}, "E-cadherin": {"molecular_target": "T2, E-cadherin (human, UniProt P12830 155-882)", "T2 construct": "Endogenous protein in lysate of pervanadate-treated T-47D cells", "T2 sequence (looked up)": "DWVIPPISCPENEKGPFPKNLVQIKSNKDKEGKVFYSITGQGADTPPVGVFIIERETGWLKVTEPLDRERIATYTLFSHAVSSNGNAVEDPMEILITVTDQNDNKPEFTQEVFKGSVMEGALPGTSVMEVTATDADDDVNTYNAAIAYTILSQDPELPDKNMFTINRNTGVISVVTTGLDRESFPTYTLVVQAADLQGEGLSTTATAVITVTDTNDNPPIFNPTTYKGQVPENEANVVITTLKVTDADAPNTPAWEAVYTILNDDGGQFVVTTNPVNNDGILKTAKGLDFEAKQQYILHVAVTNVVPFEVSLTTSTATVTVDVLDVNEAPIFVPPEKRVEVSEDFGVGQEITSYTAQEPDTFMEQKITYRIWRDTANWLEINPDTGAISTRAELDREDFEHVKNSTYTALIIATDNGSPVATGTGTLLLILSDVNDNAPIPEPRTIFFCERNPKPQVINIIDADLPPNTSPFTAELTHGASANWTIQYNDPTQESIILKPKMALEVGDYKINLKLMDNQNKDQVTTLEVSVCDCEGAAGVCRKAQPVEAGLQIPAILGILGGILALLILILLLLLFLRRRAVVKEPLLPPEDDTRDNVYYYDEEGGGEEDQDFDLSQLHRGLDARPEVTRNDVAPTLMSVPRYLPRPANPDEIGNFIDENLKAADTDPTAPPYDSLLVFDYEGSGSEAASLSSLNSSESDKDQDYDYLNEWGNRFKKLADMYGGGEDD", "test": "amylose pull-down from pervanadate-treated T-47D lysate, anti-E-cadherin immunoblot", "method": "(§1) Substrate trapping—Prior to lysis, T-47D and T-47D/Met cells were treated with 50 μM pervanadate for 20 minutes, whereas MDA-MB-231 cells were treated with 100 μM pervanadate for 20 minutes. Cells were rinsed with PBS and lysed in 1% NP-40 buffer (1% NP-40,150 mM NaCl, 20 mM HEPES pH7.5, 1 mM EDTA, 5 μg/ml aprotinin, 5 μg/ml leupeptin, 1 mM benzamidine). For trapping experiments in vitro, the lysis buffer also contained 5 mM iodoacetic acid to inhibit cellular PTPs irreversibly. After incubation on ice for 5 minutes, dithiothreitol was added to a final concentration of 10 mM to inactivate any unreacted iodoacetic acid. Insoluble material was removed by centrifugation. […] Lysates and fusion proteins were incubated at 4° C. for 2 hours and then washed extensively with 1% NP-40 buffer. Tyrosine phosphorylated proteins were immunoprecipitated using 0.1 mg T-47D cell lysate and a combination of 5 μl each of anti-phosphotyrosine antibodies PT-66 and 4G10. Lysate and antibodies were incubated at 4° C. for 2 hours and washed extensively with 1% NP-40 buffer."}, "Met, the HGF/SF receptor": {"molecular_target": "T3, Met, the HGF/SF receptor (Homo sapiens (Human), UniProt P08581 25-1390, tyrosine phosphorylated (cells treated with pervanadate); sites not stated)", "T3 construct": "also called HGF-R; HGF/SF receptor Met", "test": "amylose pull-down from pervanadate-treated T-47D/Met lysate, anti-Met immunoblot", "method": "as §1"}}}
{"binder": "full length DEP-1(CS) (protein) AGGTPSPIPDPSVATVATGENGITQISSTAESFHKQNGTGTPQVETNTSEDGESSGANDSLRTPEQGSNGTDGASQKTPSSTGPSPVFDIKAVSISPTNVILTWKSNDTAASEYKYVVKHKMENEKTITVVHQPWCNITGLRPATSYVFSITPGIGNETWGDPRVIKVITEPIPVSDLRVALTGVRKAALSWSNGNGTASCRVLLESIGSHEELTQDSRLQVNISDLKPGVQYNINPYLLQSNKTKGDPLGTEGGLDASNTERSRAGSPTAPVHDESLVGPVDPSSGQQSRDTEVLLVGLEPGTRYNATVYSQAANGTEGQPQAIEFRTNAIQVFDVTAVNISATSLTLIWKVSDNESSSNYTYKIHVAGETDSSNLNVSEPRAVIPGLRSSTFYNITVCPVLGDIEGTPGFLQVHTPPVPVSDFRVTVVSTTEIGLAWSSHDAESFQMHITQEGAGNSRVEITTNQSIIIGGLFPGTKYCFEIVPKGPNGTEGASRTVCNRTVPSAVFDIHVVYVTTTEMWLDWKSPDGASEYVYHLVIESKHGSNHTSTYDKAITLQGLIPGTLYNITISPEVDHVWGDPNSTAQYTRPSNVSNIDVSTNTTAATLSWQNFDDASPTYSYCLLIEKAGNSSNATQVVTDIGITDATVTELIPGSSYTVEIFAQVGDGIKSLEPGRKSFCTDPASMASFDCEVVPKEPALVLKWTCPPGANAGFELEVSSGAWNNATHLESCSSENGTEYRTEVTYLNFSTSYNISITTVSCGKMAAPTRNTCTTGITDPPPPDGSPNITSVSHNSVKVKFSGFEASHGPIKAYAVILTTGEAGHPSADVLKYTYDDFKKGASDTYVTYLIRTEEKGRSQSLSEVLKYEIDVGNESTTLGYYNGKLEPLGSYRACVAGFTNITFHPQNKGLIDGAESYVSFSRYSDAVSLPQDPGVICGAVFGCIFGALVIVTVGGFIFWRKKRKDAKNNEVSFSQIKPKKSKLIRVENFEAYFKKQQADSNCGFAEEYEDLKLVGISQPKYAAELAENRGKNRYNNVLPYDISRVKLSVQTHSTDDYINANYMPGYHSKKDFIATQGPLPNTLKDFWRMVWEKNVYAIIMLTKCVEQGRTKCEEYWPSKQAQDYGDITVAMTSEIVLPEWTIRDFTVKNIQTSESHPLRQFHFTSWPDHGVPDTTDLLINFRYLVRDYMKQSPPESPILVHSSAGVGRTGTFIAIDRLIYQIENENTVDVYGIVYDLRMHRPLMVQTEDQYVFLNQCVLDIVRSQKDSKVDLIYQNTTAMTIYENLAPVTTFGKTNGYIA", "values": [{"measurement": "phosphorylation of Met (phospho-specific antibodies)", "setting": "[1]", "value": "no effect on phosphorylation of Met was observed with the expression of DEP-1(CS)"}, {"measurement": "phosphorylation of Tyr^1349 of Met (phospho-specific antibody)", "setting": "[1]", "value": "no change in the phosphorylation level of Tyr^1349 was observed in the presence of DEP-1(CS)"}]}
{"binder": "full length wild type DEP-1 (protein) AGGTPSPIPDPSVATVATGENGITQISSTAESFHKQNGTGTPQVETNTSEDGESSGANDSLRTPEQGSNGTDGASQKTPSSTGPSPVFDIKAVSISPTNVILTWKSNDTAASEYKYVVKHKMENEKTITVVHQPWCNITGLRPATSYVFSITPGIGNETWGDPRVIKVITEPIPVSDLRVALTGVRKAALSWSNGNGTASCRVLLESIGSHEELTQDSRLQVNISDLKPGVQYNINPYLLQSNKTKGDPLGTEGGLDASNTERSRAGSPTAPVHDESLVGPVDPSSGQQSRDTEVLLVGLEPGTRYNATVYSQAANGTEGQPQAIEFRTNAIQVFDVTAVNISATSLTLIWKVSDNESSSNYTYKIHVAGETDSSNLNVSEPRAVIPGLRSSTFYNITVCPVLGDIEGTPGFLQVHTPPVPVSDFRVTVVSTTEIGLAWSSHDAESFQMHITQEGAGNSRVEITTNQSIIIGGLFPGTKYCFEIVPKGPNGTEGASRTVCNRTVPSAVFDIHVVYVTTTEMWLDWKSPDGASEYVYHLVIESKHGSNHTSTYDKAITLQGLIPGTLYNITISPEVDHVWGDPNSTAQYTRPSNVSNIDVSTNTTAATLSWQNFDDASPTYSYCLLIEKAGNSSNATQVVTDIGITDATVTELIPGSSYTVEIFAQVGDGIKSLEPGRKSFCTDPASMASFDCEVVPKEPALVLKWTCPPGANAGFELEVSSGAWNNATHLESCSSENGTEYRTEVTYLNFSTSYNISITTVSCGKMAAPTRNTCTTGITDPPPPDGSPNITSVSHNSVKVKFSGFEASHGPIKAYAVILTTGEAGHPSADVLKYTYDDFKKGASDTYVTYLIRTEEKGRSQSLSEVLKYEIDVGNESTTLGYYNGKLEPLGSYRACVAGFTNITFHPQNKGLIDGAESYVSFSRYSDAVSLPQDPGVICGAVFGCIFGALVIVTVGGFIFWRKKRKDAKNNEVSFSQIKPKKSKLIRVENFEAYFKKQQADSNCGFAEEYEDLKLVGISQPKYAAELAENRGKNRYNNVLPYDISRVKLSVQTHSTDDYINANYMPGYHSKKDFIATQGPLPNTLKDFWRMVWEKNVYAIIMLTKCVEQGRTKCEEYWPSKQAQDYGDITVAMTSEIVLPEWTIRDFTVKNIQTSESHPLRQFHFTSWPDHGVPDTTDLLINFRYLVRDYMKQSPPESPILVHCSAGVGRTGTFIAIDRLIYQIENENTVDVYGIVYDLRMHRPLMVQTEDQYVFLNQCVLDIVRSQKDSKVDLIYQNTTAMTIYENLAPVTTFGKTNGYIA", "values": [{"measurement": "phosphorylation of Tyr^1230, Tyr^1234 and Tyr^1235 of Met (phospho-specific antibodies)", "setting": "[1]", "value": "a gradual decrease in the level of phosphorylation of the activation loop tyrosine residues was observed with increasing expression of wild type DEP-1"}, {"measurement": "phosphorylation of Tyr^1349 of Met (phospho-specific antibody)", "setting": "[1]", "value": "Tyr^1349 was nearly completely dephosphorylated in the presence of low levels of DEP-1"}, {"measurement": "phosphorylation of Tyr^1365 of Met (phospho-specific antibody)", "setting": "[1]", "value": "Tyr^1365 was nearly completely dephosphorylated in the presence of low levels of DEP-1"}]}
{"binder": "MBP.DEP-1(DA) (enzyme, not shown: large carriers; small tags and cut ends, also called DEP-1 substrate-trapping mutant (DA); DEP-1(DA) cytoplasmic domain fusion protein) RKKRKDAKNNEVSFSQIKPKKSKLIRVENFEAYFKKQQADSNCGFAEEYEDLKLVGISQPKYAAELAENRGKNRYNNVLPYDISRVKLSVQTHSTDDYINANYMPGYHSKKDFIATQGPLPNTLKDFWRMVWEKNVYAIIMLTKCVEQGRTKCEEYWPSKQAQDYGDITVAMTSEIVLPEWTIRDFTVKNIQTSESHPLRQFHFTSWPAHGVPDTTDLLINFRYLVRDYMKQSPPESPILVHCSAGVGRTGTFIAIDRLIYQIENENTVDVYGIVYDLRMHRPLMVQTEDQYVFLNQCVLDIVRSQKDSKVDLIYQNTTAMTIYENLAPVTTFGKTNGYIA", "values": [{"measurement": "binding result", "setting": "E-cadherin", "value": "no binding (tested: 1 µg fusion protein to 500 µg lysate)"}]}
{"binder": "MBP.DEP-1 (enzyme, not shown: large carriers, also called wild type DEP-1 (MBP-DEP-1); wildtype DEP-1 fusion protein) RKKRKDAKNNEVSFSQIKPKKSKLIRVENFEAYFKKQQADSNCGFAEEYEDLKLVGISQPKYAAELAENRGKNRYNNVLPYDISRVKLSVQTHSTDDYINANYMPGYHSKKDFIATQGPLPNTLKDFWRMVWEKNVYAIIMLTKCVEQGRTKCEEYWPSKQAQDYGDITVAMTSEIVLPEWTIRDFTVKNIQTSESHPLRQFHFTSWPDHGVPDTTDLLINFRYLVRDYMKQSPPESPILVHCSAGVGRTGTFIAIDRLIYQIENENTVDVYGIVYDLRMHRPLMVQTEDQYVFLNQCVLDIVRSQKDSKVDLIYQNTTAMTIYENLAPVTTFGKTNGYIA", "values": [{"measurement": "binding result", "setting": "Met, the HGF/SF receptor", "value": "no binding (tested: 1 µg fusion protein to 500 µg lysate)"}]}
